Article PMC9398005 (2021)

Legend:
Assay in all cases: ITC
mouse Rbpj (53-474) WT = mouse Rbpj (53-474) WT (mouse, UniProt P31266 53-474)
[1] = biological target: Drosophila Su(H) (98-523) E137V (Drosophila, UniProt P28159 98-523, E137V | R155T)
[2] = biological target: Drosophila Su(H) (98-523) K132M (Drosophila, UniProt P28159 98-523, K132M | R155T)
[3] = biological target: mouse Rbpj (53-474) K195E (mouse, UniProt P31266 53-474, K195E)
Chain of mouse Rbpj (53-474) K195E (P31266 53-474 K195E): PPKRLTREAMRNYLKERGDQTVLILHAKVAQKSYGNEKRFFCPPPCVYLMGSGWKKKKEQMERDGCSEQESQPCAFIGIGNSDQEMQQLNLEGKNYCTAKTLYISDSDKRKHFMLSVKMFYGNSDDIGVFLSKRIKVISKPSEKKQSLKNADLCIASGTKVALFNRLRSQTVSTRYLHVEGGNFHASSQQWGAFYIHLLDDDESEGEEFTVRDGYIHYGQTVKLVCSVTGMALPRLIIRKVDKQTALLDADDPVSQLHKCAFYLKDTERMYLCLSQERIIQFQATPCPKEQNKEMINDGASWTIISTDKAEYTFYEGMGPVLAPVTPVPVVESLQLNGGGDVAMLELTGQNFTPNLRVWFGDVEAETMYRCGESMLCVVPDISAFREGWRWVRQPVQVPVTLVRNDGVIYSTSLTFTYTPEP

Chain of Drosophila Su(H) (98-523) K132M (P28159 98-523 K132M/R155T/N281G): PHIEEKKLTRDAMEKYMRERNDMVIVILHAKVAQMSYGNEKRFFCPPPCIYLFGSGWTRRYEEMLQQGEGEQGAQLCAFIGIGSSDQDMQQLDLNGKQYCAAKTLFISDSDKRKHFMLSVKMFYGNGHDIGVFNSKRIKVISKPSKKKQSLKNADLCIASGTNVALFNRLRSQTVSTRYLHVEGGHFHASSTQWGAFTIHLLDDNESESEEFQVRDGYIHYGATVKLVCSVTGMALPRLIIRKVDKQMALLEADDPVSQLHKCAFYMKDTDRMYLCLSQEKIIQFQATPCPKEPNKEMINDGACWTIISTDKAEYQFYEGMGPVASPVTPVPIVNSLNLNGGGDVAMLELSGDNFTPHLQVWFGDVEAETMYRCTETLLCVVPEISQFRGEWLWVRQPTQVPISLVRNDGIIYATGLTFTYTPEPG
Chain of mouse Rbpj (53-474) WT (P31266 53-474): as the sequence (P31266 53-474 K195E) above, with E143K counted along it
Chain of Drosophila Su(H) (98-523) E137V (P28159 98-523 E137V/R155T/N281G): as the sequence (P28159 98-523 K132M/R155T/N281G) above, with M35K, E40V counted along it

B1: SHARP residues 2776-2833 (domain or fragment)
chain: RASANENSRFHPGSMPVIDDRPADAGSGAGLRVNTSEGVVLLSYSGQKTEGPQRISAK
B1 gave a Kd (mouse Rbpj (53-474) WT) of 4 nM.

B2: Drosophila Notch RAM peptide (residues 1763-1790) (peptide)
peptide: VLSTQRKRAHGVTWFPEGFRAPAAVMSR
Binder B2 has a Kd [1] of 166 nM and a Kd [2] of 107 nM.

B3: Notch1 RAM peptide (human Notch1 residues 1754-1781) (peptide)
peptide: VLLSRKRRRQHGQLWFPEGFKVSEASKK
In the case of B3, the Kd [3] is reported as 22 nM.
